Data reported in patent US20180185504A1 (Regeneron, published 2018).
Changes are numbered by the printed parent chain. Names may count otherwise.

B1: H1H6792P (antibody, human IgG1, V domains shown)
VH: EVQLVESGGGLVQPGRSLRLSCAASGFTLDDHAVHWVRQAPGKGLEWVSGISWNSVYIDYADSVKGRFTIFRDNAKNSLYLQMNSLRAEDTAFYYCARDIEGARDYWGQGTLVTVSS
VL: DIQMTQSPSSLSASVGDRVTITCRASQGIRNDLGWYQQKPGKAPKRLIYAASSLQSGVPSRFSGSGYGTEFTLTISSLQPEDFAPYYCLQHNSYPLTFGGGTKVEIK
notes: Human IgG1 Fc (H1H)
B2: H1H6793P (antibody, human IgG1, V domains shown)
VH: EVQLVESGGGLVQPGGSLRLSCAASGFSFSIYAMSWFRQAPGKGLEWVSAINGRGDGTHYADSVKGRFTISRDNSKTTLYLQMSSLRAEDTAVYYCAKPVMSTNGFDIWGQGTMVTVSS
VL: DIQMTQSPSTLSASVGDRVTITCRASQSISSWLAWYQLKPGKAPKLLIYKASNLESGVPSRFSGSGSGTEFTLTISSLQPDDFATYYCQQYNIYWTFGQGTKVEIK
notes: Human IgG1 Fc (H1H)
B3: H1H6795P (antibody, human IgG1, V domains shown)
VH: QVQLVQSGAEVKKPGASVKVSCKASGYTFGTSGITWVRQAPGQGLEWMGWSSAYNGKTDYAQKFQDRVTMTTDTSTTTGYMEMRSLTSDDTAVYYCTTVVRRPFDFWGQGTLVTVSS
VL: DIQMTQSPSSLSASVGDRVTITCRASQDINNFLAWFQQKPGKAPKSLIYAASSLQSGVPSKFSGGGSGTDFALTISSLQPEDFATYYCQQYSSYPITFGQGTRLEIK
notes: Human IgG1 Fc (H1H)
B4: H1H6797P (antibody, human IgG1, V domains shown)
VH: EVQLVESGGGLVQPGGSLRLSCIVSGFTFSGSWMSWVRQLPGKGLEWVANIKEDGSDSYYVDSVEGRFTISRDNAKSSLYLQMNSLRVDDTAVYFCARARTVPLHYWGQGTLVTVSS
VL: DIQMTQSPSTLSASVGDRVTITCRASQSINIWLAWYQQKPGKAPKLLIYRASYLESGVPSSFAGGGSGTEFTLTISSLQPDDFGTYYCQHYNSYPFTFGQGTKLEIK
notes: Human IgG1 Fc (H1H)
B5: H1H6800P (antibody, human IgG1, V domains shown)
VH: EVQLVESGGGLVQPGRSLRLSCAASGFTFDGYAMHWVRQGPGKGLEWVSGISWYSDTLGYADSVKGRFTISRDNAKNSLYLQMNSLRTEDTAFYYCAKISSSGWAFDYWGQGTLVTVSS
VL: EIVLTQSPGTLSLSPGERATLSCRASHSVSSAYLAWYQQKPGQTPRLLIYGTSSRATGIPDRFSGSGSGTDFTLTISRLEPEDFAVYYCQQYGSSPLFTFGPGTKVDIK
notes: Human IgG1 Fc (H1H)
B6: H1H6801P (antibody, human IgG1, V domains shown)
VH: QVQLQQSGPGLVKPSQTLSLTCVISGDSVSSNTAWNWVRQSPSRGLEWLGRTYYRSKWYNDYAVSVKSRITINPDTSKNQFSLLMNSVTPEDTAVYYCARVVRGLNYFDYWGQGTLVTVSS
VL: DIVMTQSPDSLAVSLGERATINCKSSQSVLYNSNNKNYLAWYQQKPGQPPKLLIYWSSSRESGVPDRFSGSGSGTDFTLTISGLQAEDVAIYYCQQYSTIPYTFGQGTKLEIK
notes: Human IgG1 Fc (H1H)
B7: H1H6803P (antibody, human IgG1, V domains shown)
VH: EVQLVESGGGVVRPGGSLRLSCAASGFKFDDYGMTWVRHVPGKGLEWVSGINWNGGRTGYTDSVKGRFTISRDNAKNSLYLQMNSLRAEDTALYHCAGARRDAFDIWGQGTMVTVSS
VL: DIQMTQSPSSLSASIGDRVTITCRASQNIIKYLNWYQQNAGKAPKLLIYTASSLQSGVPSRFSGSGSGTDFTLTISSLQPEDFATYYCQQSSSSPYTFGQGTKLEIK
notes: Human IgG1 Fc (H1H)
B8: H1H6804P (antibody, human IgG1, V domains shown)
VH: QVTLKESGPVLVKPTQTLSLTCTVSGFSLSDAGMGVSWIRQPPGKALEWLAHIFSNDGKSYSTSLKSRLTISKDTSKRQVVLTMTNMDPVDTATYYCARIRTGTYSLYLDYWGQGTLVTVSS
VL: DIQMTQSPSSLSASVGDRVTITCRASQSINSYLNWYQQKPGKAPKLLLYFASSLQSGVPSRFSGSGSGTDFTLTISSLQPEDFASYYCQESYSTPWTFGQGTKVEIK
notes: Human IgG1 Fc (H1H)
B9: H1H6807P (antibody, V domains shown)
VH: QVQLVESGGGVVQPGRSLRLSCAASGFTFSDYNMHWVRQAPGKGLEWVAVIWYDGSNKHYADSVKGRFTISRDNSKNTLYLQMNSLRAEDTAVYYCARDGFTIFGMVLDYWGQGTLVTVSS
VL: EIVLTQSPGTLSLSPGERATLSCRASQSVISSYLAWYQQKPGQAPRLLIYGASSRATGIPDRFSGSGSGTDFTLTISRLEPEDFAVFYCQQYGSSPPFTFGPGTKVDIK
notes: Human IgG1 Fc (H1H)
B10: H1H6953N (antibody, human IgG1, V domains shown)
VH: EVQLLESGGGLVQPGGTLRLSCAASGFTFSAYAMSWVRQAPGKGLEWVSSINVRAGDTYYADSVKGRFTISRDNSKNTLFLLMNSLRAEDTAAYYCAKARYSSNWGFDFWGQGTLVTVSS
VL: DIVMTQSPDSLTVSLGARTTINCQSSQTILHSSNNHNYLAWYQQKPGLPPKLLIYWSSTRESGVPDRFSGSGSGTDFTLTISSLQAEDVAIYYCQQYSNTPYTFGQGTKLEIN
notes: Tested with human IgG1 Fc (H1H); also called H1M6953N
B11: H1H6958N2 (antibody, human IgG1, V domains shown)
VH: QVQLVESGGGVVQPGRSLRLSCGASGFTFRNYGMQWVRQGPGKGLEWVTLISFDGNDKYYADSVKGRFTISRDNSKNTLFLQMNSLRTEDTAVYYCARGGDFDYWGQGTLVTVSS
VL: DIQMTQSPSSLSASVGDRVTITCRASQDIRKDLGWYQQKPGKAPKRLIYAASSLHSGVPSRFSGSGSGTEFTLTISSLQPEDFATYYCLQHNSYPMYTFGQGTKLEIK
notes: Tested with human IgG1 Fc (H1H); also called H2M6958N2
B12: H1H6959N2 (antibody, human IgG1, V domains shown)
VH: EVQLVESGGGLVQPGRSLRLSCAASGFTFDDYAMHWVRQAPGKGLEWVSGISWHSGIIGYADSVKGRFTISRDNAKNSLYLQMNSLRTEDAALYYCAKIGSYFYFDSWGQGTLVTVSS
VL: EIVLTQSPGTLSLSPGERATLSCRASQSVSSNYLAWYQQKPGQAPRLLIYGASSRATGIPDRFSGSGSGTDFTLTISRLEPEDFAVYYCQQFGSSGYTFGQGTNLEIK
notes: Tested with human IgG1 Fc (H1H); also called H2M6959N2

What was measured:
Test in all cases: SPR Biacore, 25 C, mAb capture
[1] = biological target: T1, hPRLR.mmh (soluble monomeric human PRLR) (human)
T1 construct: called soluble monomeric PRLR protein
T1 chain: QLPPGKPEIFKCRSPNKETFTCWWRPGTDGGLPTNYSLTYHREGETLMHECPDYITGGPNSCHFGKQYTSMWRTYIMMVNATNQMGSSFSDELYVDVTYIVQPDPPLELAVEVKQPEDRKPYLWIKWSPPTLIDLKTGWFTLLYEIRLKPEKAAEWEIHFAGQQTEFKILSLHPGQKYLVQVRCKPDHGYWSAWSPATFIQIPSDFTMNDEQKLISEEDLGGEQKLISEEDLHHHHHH
Experimental: (§1) Measurements were conducted on a T200 Biacore instrument. Kinetic association (kₐ) and dissociation (kd) rate constants were determined by processing and fitting the data to a 1:1 binding model using Scrubber 2.0 curve fitting software.

[2] = biological target: T2, hPRLR.mFc (soluble dimeric human PRLR) (human)
T2 construct: dimeric PRLR construct
T2 chain: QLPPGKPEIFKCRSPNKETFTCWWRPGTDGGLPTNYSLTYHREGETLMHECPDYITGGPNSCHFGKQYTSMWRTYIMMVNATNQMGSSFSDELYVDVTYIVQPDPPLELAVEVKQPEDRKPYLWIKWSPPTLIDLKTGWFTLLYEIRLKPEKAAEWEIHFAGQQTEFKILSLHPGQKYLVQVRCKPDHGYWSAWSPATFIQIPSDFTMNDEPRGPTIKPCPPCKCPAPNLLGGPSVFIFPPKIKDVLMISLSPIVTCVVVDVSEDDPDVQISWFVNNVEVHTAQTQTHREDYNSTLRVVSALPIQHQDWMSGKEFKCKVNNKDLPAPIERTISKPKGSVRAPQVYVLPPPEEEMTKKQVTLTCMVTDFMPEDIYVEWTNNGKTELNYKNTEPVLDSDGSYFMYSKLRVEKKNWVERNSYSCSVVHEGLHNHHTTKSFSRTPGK
Experimental: as §1

[3] = biological target: T3, macaca fascicularis (mf) PRLR.mmh (soluble monomeric monkey PRLR) (Macaca fascicularis)
T3 construct: called soluble monomeric PRLR protein
T3 chain: T1 chain with I76V, A110T, I125M, I158T, T207I
Experimental: as §1

Binder	Kd [1]	T½ [1]	koff [1]	kon [1]	Kd [2]	T½ [2]	koff [2]	kon [2]	Kd [3]	T½ [3]	koff [3]	kon [3]
B1	2.45 nM	15 min	0.000794 s⁻¹	324000 M⁻¹ s⁻¹	0.313 nM	122 min	9.48e-05 s⁻¹	303000 M⁻¹ s⁻¹	4.17 nM	12 min	0.000983 s⁻¹	236000 M⁻¹ s⁻¹
B2	1.41 nM	35 min	0.000332 s⁻¹	235000 M⁻¹ s⁻¹	0.331 nM	153 min	7.57e-05 s⁻¹	229000 M⁻¹ s⁻¹	2.22 nM	29 min	0.000393 s⁻¹	177000 M⁻¹ s⁻¹
B3	1.52 nM	7 min	0.00177 s⁻¹	1.17e+06 M⁻¹ s⁻¹	0.0545 nM	137 min	8.41e-05 s⁻¹	1.54e+06 M⁻¹ s⁻¹	2.33 nM	6 min	0.00197 s⁻¹	844000 M⁻¹ s⁻¹
B4	1.73 nM	6 min	0.00196 s⁻¹	1.13e+06 M⁻¹ s⁻¹	0.122 nM	97 min	0.000119 s⁻¹	982000 M⁻¹ s⁻¹	3.12 nM	6 min	0.00209 s⁻¹	670000 M⁻¹ s⁻¹
B5	0.972 nM	28 min	0.000409 s⁻¹	421000 M⁻¹ s⁻¹	0.184 nM	133 min	8.69e-05 s⁻¹	473000 M⁻¹ s⁻¹	1.25 nM	30 min	0.00038 s⁻¹	303000 M⁻¹ s⁻¹
B6	0.894 nM	15 min	0.000756 s⁻¹	846000 M⁻¹ s⁻¹	0.161 nM	106 min	0.000109 s⁻¹	675000 M⁻¹ s⁻¹	1.88 nM	9 min	0.00123 s⁻¹	657000 M⁻¹ s⁻¹
B7	1.67 nM	84 min	0.000137 s⁻¹	82400 M⁻¹ s⁻¹	0.607 nM	184 min	6.29e-05 s⁻¹	104000 M⁻¹ s⁻¹	3.37 nM	55 min	0.000209 s⁻¹	62100 M⁻¹ s⁻¹
B8	1.4 nM	18 min	0.000634 s⁻¹	453000 M⁻¹ s⁻¹	0.193 nM	133 min	8.69e-05 s⁻¹	451000 M⁻¹ s⁻¹	1.99 nM	18 min	0.000657 s⁻¹	331000 M⁻¹ s⁻¹
B9	0.189 nM	80 min	0.000144 s⁻¹	761000 M⁻¹ s⁻¹	0.0803 nM	212 min	5.46e-05 s⁻¹	680000 M⁻¹ s⁻¹	0.346 nM	76 min	0.000151 s⁻¹	437000 M⁻¹ s⁻¹
B10	0.268 nM	54.5 min	0.000212 s⁻¹	792000 M⁻¹ s⁻¹	0.067 nM	242 min	4.77e-05 s⁻¹	711000 M⁻¹ s⁻¹	0.438 nM	36.3 min	0.000319 s⁻¹	727000 M⁻¹ s⁻¹
B11	1.17 nM	42.5 min	0.000272 s⁻¹	233000 M⁻¹ s⁻¹	0.0867 nM	316 min	3.66e-05 s⁻¹	422000 M⁻¹ s⁻¹	1.44 nM	41.3 min	0.00028 s⁻¹	195000 M⁻¹ s⁻¹
B12	202 nM	0.3 min	0.036 s⁻¹	179000 M⁻¹ s⁻¹	1.45 nM	22.3 min	0.000518 s⁻¹	359000 M⁻¹ s⁻¹	129 nM	0.7 min	0.0167 s⁻¹	129000 M⁻¹ s⁻¹
